The chains are these.
B1: TRL849 (antibody, V domains shown)
VH: QVQLVESGPGLVKPSQTLSLTCTVSGGSISNGGYHWSWIRQHPGKGLEWIGNIYYRGSTFYDPSLKSRVTISVDTSKSQFSLKLTSVTAADTAVYYCARMPLANYDLLTGLYIGAFDLWGQGTMVTVSS
VL: DIVLTQSPATLSVSPGERATLSCRASQSVNRNLAWFQQIPGQAPRLLIFDASTRAADIPARFSGGGSGAEFTLTVSSLQPEDFAVYYCQQYDKWPPGFGQGTKVEIKR
B2: TRL813 (antibody, V domains shown)
VH: QVQLVESGGGLVQPGGSLRLSCAASGFIFGDFAIHWVRQASGKGLEWVARIRSGLNRFETAYAASVEGRLTISRDDSKSMAYLQMNNVKAEDTAVYLCTYLVGAVGFQHWGQGTLVTVSS
VL: DIVMTQSPSTLSASVGDRVTITCRASQTIYRWLAWYQQKPGKAPKVLIYKASTLESGVPSRFSGSGSGTEFTLAISSLQPDDFATYYCQQYNSFPYRFGQGTKVEIKR
B3: TRL812 (antibody, V domains shown)
VH: QVQLVQSGGGVVQPGRSLRLSCAASGFNFSSYGMHWVRQAPGKGLEWLSVIWSGGSNKYYADSVKGRFTISRDDSKNTVYLQMNSLRDEDTAVYYCARAHTALTRFRWLDPWGQGILVTVSS
VL: DIVMTQSPATLSVSPGEGATLSCRASQGIGSNLAWYQHKPGQAPRLLIYAASTRATGVPARFSGSGSGTEFTLTISSLQSEDLAVYFCQQYNTWPLTFGGGTKVEIIR
B4: TRL832 (antibody, V domains shown)
VH: QVQLVESGPGLMKPSETLSLTCTVSGGSVSNYYWSWIRQPPGKGLEWIGYVFYSGSSNYNPSLNNPSLKSRVTISIDTSNNQFSLKLSSVTAADTAVYYCARGRVNSGYDWGPNFDSWGQGALVTVSS
VL: DIVLTQAPSVSVSPGQTASITCSGDRLGEKFASWYQQKPGQSPVLVIYEDSKRPSGIPDRFSGSNSGNTATLTISGTQIMDEGDFFCQAWDSSTVVFGGGTKLTVLG
B5: TRL847 (antibody, V domains shown)
VH: QVQLVESGGGLVQPGGSLRLSCVASGFTFSRFSMNWVRQAPGMGLEWVSYISDTGRTIYYADSVKGRFTISRDNDKNTLYLQMKSLRDEDSAFYYCARDPDTPFVRAFDSWGQGVLVTVSS
VL: DIVMTQSPSFLSASVGDRVTITCRTSQVISSYLAWYQQRPGKAPKLLIYAASTLQSGVPSRFSGSGSGTRFSLTISNLQPEDFATYFCQQLTTYPPITFGQGTRLEIKR
B6: TRL856 (antibody, V domains shown)
VH: QVQLVESGGGLVQPGGSLRLSCAASGFTFSDYWMVWVRQAPGKGLVWVSRISSDGSTTSYADSVKGPFTISRDNAKNTLYLQMNSLRAEDTAVYYCARVATPYYYESGFDYWGQGALVTVSS
VL: DIVLTQSPSVSVAPGQTARITCGGNDIGSKSVHWYQQKPGQAPVLVVFDDRDRPSGIPERFSGSNSGNTATLTISRVEAGDEADYYCQVWDITSDLVVFGGGTKLTVVG
B7: TRL842 (antibody, V domains shown)
VH: QVQLLESGGDVVQPGTSLRLSCAASGFSLWTSGMHWVRQAPGKGLEWVAVMSYDETKKYYADSVRGRFSISRDNSRNTLYLQMNSLRVEDTAVYFCAKPRLDYLDYFHAADSWGQGTLVSVSS
VL: DIVLTQPPSVSVAPGQTATITCGGNYIGSKSVNWYQQRPGHAPVLVVYDDSDRPSGIPDRFSGSNSRSTATTATLTISRVEAGDEADYYCQVWETSEDLWVFGGGTKLTVLG
B8: TRL841 (antibody, V domains shown)
VH: QVQLVESGGGVVQPGRSLRLSCAASGFTFSSYGIYWVRQAPGKGLEWVAFISYDEINKFYADSVKGRFTISRDNSKNTVFLQMNSLRDEDTAVYYCAKPLRGSYRYFDLWGRGTVVTVSS
VL: DIVMTQPPATLSVSPGERATLSCGASQGLGSNLAWYQQKPGQAPRLLIYAASTRATGITARFSGSGSGTEFTLTINSLQSEDFALYYCQQYTYWPLTFGGGTKVEIKR
B9: TRL809 (antibody, V domains shown)
VH: QVQLLESGGGVVRPGRSLRLACAGSGFTFSAYAMHWVRQAPGKGLEWVAHTSYDGRDSYYVDSVKGRFTISRDDSKNTLYLQMNSLRPEDTAVYYCAKVGPYTGYDDYNYYGMDVWGHGTTVTVSS
VL: DIVLTQSPVSLAVSLGESATVNCKSSQSVLSNSKNLNYLAWYQHKPGQPPKLLIYWASTRESGVPDRFSGSGSGTDFTLTISSLQAEDVAVYYCQQHYSIPLTFGPGTKVDIKR

In one assay the target is recombinant HA of influenza B virus B/Brisbane/08 (Victoria clade) (influenza B virus B/Brisbane/08 …). The experiment in a line: recombinant HA ELISA (AttoPhos fluorescence, mean of triplicates). Background: An ELISA detects its analyte on a solid surface through an enzyme-linked reagent.
Turning to B1, the “fold reactivity over background” value was determined as 25.6 fold over background.
The same measure, in the same setting: for B2 the value was 25.6 fold over background; for B3, 25.6 fold over background.
Consider B4, for which the “fold reactivity over background” value stood at 25.6 fold over background.
Turning to B5, the “fold reactivity over background” value is 25.6 fold over background.
The same measure, in the same setting: for B6 the value was 24.1 fold over background; for B7, 25.6 fold over background.
Turning to B8, the “fold reactivity over background” value worked out at 25.6 fold over background.
Same read-out and setting: for B9 the value was 25.6 fold over background.

The target in a further assay is T1, hemagglutinin (HA) of influenza B virus B/Malaysia (Victoria lineage) (influenza B virus B/Malaysia/04 …). The assay is described as above.
On to B1, for which the “fold reactivity over background” value was 25.6 fold over background.
Consider B2, for which the “fold reactivity over background” value was determined as 25.6 fold over background.
Turning to B3, the “fold reactivity over background” value was found to be 25.6 fold over background.
Still for that read-out and setting: then B4, with 25.6 fold over background; and B5, with 25.6 fold over background; and B6, with 25.6 fold over background.
Same read-out and setting: then B7, with 25.6 fold over background.
The same measure, in the same setting: then B8, with 25.6 fold over background; and B9, with 25.6 fold over background.

The next assay addresses T2, hemagglutinin (HA) of influenza B virus B/Florida (Yamagata lineage) (influenza B virus B/Florida/06 …). Described as above.
As for B1, the “fold reactivity over background” value turned out to be 25.6 fold over background.
Still for that read-out and setting: for B2 the value was 25.6 fold over background; for B3, 25.6 fold over background; for B4, 25.6 fold over background.
Still for that read-out and setting: for B5 the value was 25.6 fold over background.
With B6, the “fold reactivity over background” value was determined as 25.6 fold over background.
Take B7: the “fold reactivity over background” value came out at 25.6 fold over background.
The same measure, in the same setting: for B8 the value was 25.6 fold over background.
On the same count and under the same terms, then B9, with 25.6 fold over background.

Another assay concerns the target recombinant HA of influenza B virus B/Mass/12 (Yamagata clade) (influenza B virus B/Mass/12 (Yamagata …)). The description is as above.
As for B1, the “fold reactivity over background” value is 25.6 fold over background.
For B2, the “fold reactivity over background” value came out at 25.6 fold over background.
Same read-out and setting: then B3, with 25.6 fold over background; and B4, with 25.6 fold over background.
Same read-out and setting: then B5, with 25.6 fold over background.
In the case of B6, the “fold reactivity over background” value stood at 25.6 fold over background.
With B7, the “fold reactivity over background” value was determined as 25.6 fold over background.
For B8, the “fold reactivity over background” value was found to be 25.6 fold over background.
Consider B9, for which the “fold reactivity over background” value was 25.6 fold over background.

For the next assay, the target named is recombinant HA of influenza B virus B/Wisconsin/10 (Yamagata clade) (influenza B virus B/Wisconsin/10 …). The assay is described as above.
As for B1, the “fold reactivity over background” value amounted to 25.6 fold over background.
Same read-out and setting: then B2, with 25.6 fold over background; and B3, with 25.6 fold over background.
Same read-out and setting: for B4 the value was 25.6 fold over background; for B5, 25.6 fold over background.
Same read-out and setting: for B6 the value was 25.6 fold over background.
As for B7, the “fold reactivity over background” value was 25.6 fold over background.
On to B8, for which the “fold reactivity over background” value came to 25.6 fold over background.
Take B9: the “fold reactivity over background” value was found to be 25.6 fold over background.

The target of a further assay is T1, hemagglutinin (HA) of influenza B virus …. The assay can be described thus: ForteBio Octet; antigen on the sensor, varying antibody concentrations. (In general: BLI is a label-free optical method that tracks binding on a fibre tip over time.)
For orientation: Kd means a measure of binding affinity in units of concentration. Read a high Kd as a looser complex. In turn, B1 displayed a Kd below 1 nM.
B4 showed a Kd of 0.2 nM.
Same read-out and setting: then B5, with below 1 nM; and B7, with below 1 nM.
As for B9, the dissociation constant (Kd) came out at 0.2 nM.

The next assay concerns the target T2, hemagglutinin (HA) of influenza B virus …. The assay is described as above.
Consider B1, for which the Kd amounted to 0.2 nM.
As to B4, binding was put at a Kd of 1.7 nM.
In the case of B5, the Kd was 0.7 nM.
B7 yielded a Kd of 2.5 nM.
The same measure, in the same setting: for B9 the value was 0.18 nM.

Values taken from patent US20170189529A1 (CONTRAFECT, published 2017).
